{
  "source": "patent US10202593B2",
  "about": "“Evolved sortases and uses thereof” (President and Fellows of Harvard College, priority 2013, dated 2019)",
  "molecules": {"B1": {"name": "eSrtA (protein)", "chain": "QAKPQIPKDKSKVAGYIEIPDADIKEPVYPGPATREQLNRGVSFAEENESLDDQNISIAGHTFIDRPNYQFTNLKAAKKGSMVYFKVGNETRKYKMTSIRNVKPTAVEVLDEQKGKDKQLTLITCDDYNEETGVWETRKIFVATEVK"}},
  "key": {"[1]": {"molecular_target": "T1, LPETG (Abz-LPETGK(Dnp)-CONH2) (Staphylococcus aureus, UniProt Q2FV99, D160N/D165A/K190E/K196T/P94R)", "T1 construct": "All expressed sortases lack the N-terminal 59 amino acids; inferred from Ni-NTA purification; made in house; host or cells: E. coli BL21 (DE3), pET29", "T1 sequence (Q2FV99 60-206 P94R/D160N/D165A/G167E/K190E/K196T)": "B1 chain", "assay": "In vitro sortase kinetics HPLC assay, LPETG substrate", "assay_type": "biochemical", "details": "cognate LPETG substrate", "summary_of_the_method": "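Abz-LXEXGK(Dnp) peptides in 300 mM Tris pH 7.5, 150 mM NaCl, 5 mM CaCl2, 5% DMSO, GGG; 22.5° C., acid-quenched, converted fraction by reverse-phase HPLC peak areas. kcat and Km from eight substrate concentrations fit to Michaelis-Menten; KH at 1 mM substrate over eight GGG levels.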"}, "[2]": {"test_system": "LPETG (Abz-LPETGK(Dnp)-CONH2)", "details": "cited from earlier work"}},
  "data": [
    {"molecule": "B1", "values": [
      {"measurement": "Km", "setting": "[1]", "value": 200, "unit": "µM"},
      {"measurement": "higher catalytic activity relative to wild-type SrtA", "setting": "[2]", "value": "approximately 140 fold"}
    ]}
  ]
}
